We go through three compounds from patent US8829044B2, “Stabilized vitamin C derivatives having a peptide molecule, preparation method thereof, and composition containing the same” (Peotron Co. Ltd., priority 2006, dated 2014).

Peptide text beside a SMILES is read from it. * marks the point of attachment. X1 = O=C(CCC(=O)*)O[C@@H](CO)[C@H]1OC(=O)C(OP(=O)(O)O)=C1O; X2 = O=C(CCC(=O)*)O[C@@H](CO)[C@H]1OC(=O)C(O)=C1O

This data set can be described thus: Stability in purified water by change of UV (254 nm) absorbance. As to the method: Stability of each substance was evaluated, while being maintained at 25° C. and 50° C. for 30 days, by observing the change of UV (254 nm) absorbance.
Where [1] appears, read: buffer, Remaining test substance (%).

On to `C[C@@H](O)[C@H](NC(=O)[C@H](CCCCN)NC(=O)CCC(=O)O[C@@H](CO)[C@H]1OC(=O)C(O)=C1O)C(=O)N[C@H](C(=O)N[C@@H](CCCCN)C(=O)N[C@@H](CO)C(=O)O)[C@@H](C)O` [succinoyl ascorbyl pentapeptide] (X2-KTTKS-OH), for which the fraction remaining at 24 h, 10 μg/mL is 60% (buffer, Remaining test substance (%), day 1, 25° C., 10 μg/mL in purified water) and 50% (buffer, Remaining test substance (%), day 1, 50° C., 10 μg/mL in purified water). For the same compound, the share remaining at 48 h, 10 μg/mL amounted to 20% (buffer, Remaining test substance (%), day 2, 25° C., 10 μg/mL in purified water) and 10% (buffer, Remaining test substance (%), day 2, 50° C., 10 μg/mL in purified water). The share remaining at 72 h, 10 μg/mL by setting is: (buffer, Remaining test substance (%), day 3, 25° C., 10 μg/mL in purified water) 10%; (buffer, Remaining test substance (%), day 3, 50° C., 10 μg/mL in purified water) 0%. The same compound yielded a fraction remaining at 120 h, 10 μg/mL (buffer, Remaining test substance (%), day 5, 50° C., 10 μg/mL in purified water) of 0%. The fraction remaining at 240 h, 10 μg/mL (buffer, Remaining test substance (%), day 10, 50° C., 10 μg/mL in purified water) came out at 0%. The same compound showed a share remaining at 480 h, 10 μg/mL (buffer, Remaining test substance (%), day 20, 50° C., 10 μg/mL in purified water) of 0%. The compound also yielded an amount remaining at 720 h, 10 μg/mL (buffer, Remaining test substance (%), day 30, 50° C., 10 μg/mL in purified water) of 0%. Moreover, the “Remaining test substance (%)” value is 100% (day 0, 25° C., 10 μg/mL in purified water); 100% (day 0, 50° C., 10 μg/mL in purified water); 0% (day 5, 25° C., 10 μg/mL in purified water); 0% (day 10, 25° C., 10 μg/mL in purified water); 0% (day 20, 25° C., 10 μg/mL in purified water); 0% (day 30, 25° C., 10 μg/mL in purified water).
In the case of `O=C1O[C@H]([C@@H](O)CO)C(O)=C1O` [Vitamin C, ascorbic acid], the “Remaining test substance (%)” value turned out to be 100% (buffer, 0 day, 10 μg/mL); 0% (buffer, 2 day, 10 μg/mL); 0% (buffer, 3 day, 10 μg/mL); 0% (buffer, 5 day, 10 μg/mL); 0% (buffer, 10 day, 10 μg/mL); 0% (buffer, 20 day, 10 μg/mL). In addition, the “Remaining test substance (%)” value (buffer, 30 day, 10 μg/mL) is given as 0%.
For the compound `C[C@@H](O)[C@H](NC(=O)[C@H](CCCCN)NC(=O)CCC(=O)O[C@@H](CO)[C@H]1OC(=O)C(OP(=O)(O)O)=C1O)C(=O)N[C@H](C(=O)N[C@@H](CCCCN)C(=O)N[C@@H](CO)C(=O)O)[C@@H](C)O` [Ic-1, 2-phospho-5-(succinyl-lysine-threonine-threonine-lysine-serine) ascorbic acid] (X1-KTTKS-OH), under setting [1], the amount remaining at 24 h, 10 μg/mL stood at 100%; the amount remaining at 48 h, 10 μg/mL is 100%; the fraction remaining at 72 h, 10 μg/mL was 100%; the fraction remaining at 120 h, 10 μg/mL worked out at 100%. The compound also registered an amount remaining at 240 h, 10 μg/mL under setting [1] of 100%.

As a reminder, the share remaining is what is left of the initial amount, in per cent. A low value points to a greater loss.
